Where “and” joins values, the source holds several entries; their conditions need not be identical. Equal entries are not always repeated. Entries after “also recorded” stand apart in the source; their conditions may differ.
Experiments:
E. coli χ2913 cells = assay: Survival of TS-deficient E. coli χ2913 expressing wild type or mutant TS on M9 plates containing 5-FdUR; format: cell-based; conditions: for resistance to 5-FdUR (survival curves), in words: FIG. 3A-3C, single mutants made by site-directed mutagenesis
Protocol: The resistance of each of the 41 mutants to 5-FdUR is expressed as fold enhancement in survival relative to wild type determined in parallel assays. All assays were carried out in duplicate at varying concentration of 5-FdUR and most comparison were repeated in two or more separate experiments. […] Only those experiments in which the survival of the wild type was lower than 1% were included in this tabulation. The percent survival of the wild type at the indicated concentrations of 5-FdUR is as follows: (a) 0.4% in 0.4 nM; (b) <0.1% in a 150 nM; (c) 0.1% at 150 nM; (d) 0 at 300 nM; (e) 0.5% at 150 nM; (f) 0 at 200 nM; (g) 0.95 at 150 nM.
E. coli χ2913 cells harboring plasmids with random substitutions encoding different amino acids, the TS library, were grown overnight at 37° C. in 2×YT medium containing 50 mg/ml of carbenicillin and 50 mg/ml thymidine. Cultures were diluted 1:100 in the same medium and grown at 37° C. until the OD600 reached 0.6 to 0.8. Aliquots (1 ml) of the exponentially growing cells were pelleted and resuspended in M9 salts and plated on three different media. On 1×YT containing […] of carbenicillin and supplemented with 50 mg/ml of thymidine, essentially all cells harboring the plasmid DNA should be recovered. On M9 plates containing carbenicillin, only cells expressing active TS proteins should grow because the medium lacks thymidine. Drug resistant clones were selected on M9 plates containing carbenicillin and increasing concentrations of 5FdUR essentially as previously described (Landis, D. M., Loeb, L. A., 1998, J. Biol. Chem. 273:25809-25817)
To isolate mutants that render E. coli χ2913 resistant to 5-FdUR, the TS library was plated on M9 minimal medium containing 200 or 300 nM 5-FdUR. […] Resistant colonies were selected and plasmid DNA was isolated and re-transformed into fresh χ2913 cells to confirm that the plasmid was the source of the drug-resistant phenotype.
To obtain a profile of amino acid replacements conferring resistance, the remaining, 3′-proximal third of the cDNA from each of the 33 mutants was sequenced. […] Resistance is recorded as percent survival relative to percent survival of host cells harboring wild type TS at 150 nM 5-FdUR of greater. Expression of TS in 10 of the resistant mutants was analyzed by Western blotting with antiserum directed against human TS. The level of expression of wild type TS was more than 2-fold greater than that of any of the mutants, estimated by visual inspection of the gel (data not shown). The mutant proteins may be more labile than the wild type or more susceptible to proteolytic degradation.

bacterial strain χ2913 = assay: Testing the 5-FU-resistance of TS-mutants: colonies of transfected χ2913 on 5-FdUR selection plates; format: cell-based; conditions: 200 nM 5-FdUR, FIG. 5
Protocol: The bacterial strain χ2913 was transfected with expressions vectors of the TS-mutants and defined amounts of bacteria in the exponential growth phase were plated on selection plates. The selection plates contained increasing concentrations of 5-fluorodeoxyuridine (0, 75, 150, 200, respectively 300 nM). 5-fluorodeoxyuridine (5-FdUR) is a very effective metabolite, which is generated from 5-fluorouracil in the cell. The selection plates were made of minimal medium, which contained carbenicilline and tetracycline. […] After 36 to 48 hours the number of growing colonies was determined. For this the number of colonies of bacteria, which were transfected with wild type thymidylate synthase was set as 100% and all other numbers of colonies were correspondingly converted to % values.

[1] = Inhibition constants (Ki) for 5-FdUMP from Dixon plot; format: biochemical, human; conditions: 25° C.
Protocol: TS activity was monitored spectrophotometrically by the increase in absorbance at 340 nm that occurs concomitant with the production of H2 folate (Δε=6400 M^−1 cm^−1). The reaction buffer contained 50 mM TES (pH 7.4), 25 mM NaCl, 6.5 mM formaldehyde, 1 mM EDTA and 150 μM 2-mercaptoethanol. When the concentration of dUMP was varied, a high concentration of (6R)—CH2H4 folate was added (3001200 mM of a racemic mixture); when the concentration of (6R)—CH2H4-folate was varied, the concentration of dUMP was 400 μM. Purified wild type or mutant TS protein was added to initiate the reaction at 25° C. Initial velocity measurements were obtained with a Perkin Elmer Lambda Bio 20 UV/VIS spectrophotometer. Steady-state kinetic parameters were derived by a nonlinear least squares fit of the data to the Michaelis Menten equation with KaleidaGraph 3.0 software (Abelbeck Software, Reading Pa.). […] Two dUMP concentrations (30 μM and 300 μM) were used, and FdUMP concentrations were varied. To initiate reactions, CH2H4-folate was added to yield a final concentration of 300 μM of the active isomer.

B1: T51S;G52S (protein)
chain: MPVAGSELPRRPLPPAAQERDAEPRPPHGELQYLGQIQHILRCGVRKDDRSSTGTLSVFGMQARYSLRDEFPLLTTKRVFWKGVLEELLWFIKGSTNAKELSSKGVKIWDANGSRDFLDSLGFSTREEGDLGPVYGFQWRHFGAEYRDMESDYSGQGVDQLQRVIDTIKTNPDDRRIIMCAWNPRDLPLMALPPCHALCQFYVVNSELSCQLYQRSGDMGLGVPFNIASYALLTYMIAHITGLKPGDFIHTLGDAHIYLNHIEPLKIQLQREPRPFPKLRILRKVEKIDDFKAEDFQIEGYNPHPTIKMEMAV
**Q.** For B1, which “5-FdUR concentration at which colonies formed on minimal plates” value (E. coli χ2913 cells; side-by-side comparison, FIG. 3A, 200 nM clones did not grow at 250 nM) is on record?
**A.** The value was 200 nM.

B2: D254A (protein)
chain: MPVAGSELPRRPLPPAAQERDAEPRPPHGELQYLGQIQHILRCGVRKDDRTGTGTLSVFGMQARYSLRDEFPLLTTKRVFWKGVLEELLWFIKGSTNAKELSSKGVKIWDANGSRDFLDSLGFSTREEGDLGPVYGFQWRHFGAEYRDMESDYSGQGVDQLQRVIDTIKTNPDDRRIIMCAWNPRDLPLMALPPCHALCQFYVVNSELSCQLYQRSGDMGLGVPFNIASYALLTYMIAHITGLKPGDFIHTLGAAHIYLNHIEPLKIQLQREPRPFPKLRILRKVEKIDDFKAEDFQIEGYNPHPTIKMEMAV
**Q.** Which “resistance to 5-FdUR (survival curves), in words” value (“resistance to 5-FdUR” for short) (E. coli χ2913 cells) does the source give for B2 here?
**A.** The value was “higher resistance than wild type TS”.

B3: wild type TS: wild type human thymidylate synthase (SEQ ID NO: 7) (protein, listed as Homo sapiens)
chain: MPVAGSELPRRPLPPAAQERDAEPRPPHGELQYLGQIQHILRCGVRKDDRTGTGTLSVFGMQARYSLRDEFPLLTTKRVFWKGVLEELLWFIKGSTNAKELSSKGVKIWDANGSRDFLDSLGFSTREEGDLGPVYGFQWRHFGAEYRDMESDYSGQGVDQLQRVIDTIKTNPDDRRIIMCAWNPRDLPLMALPPCHALCQFYVVNSELSCQLYQRSGDMGLGVPFNIASYALLTYMIAHITGLKPGDFIHTLGDAHIYLNHIEPLKIQLQREPRPFPKLRILRKVEKIDDFKAEDFQIEGYNPHPTIKMEMAV
**Q.** Which results are given for B3?
**A.** survival rate of bacteria transfected with TS expression vector (bacterial strain χ2913): no wild type TSWT survived; percent survival of the wild type (E. coli χ2913 cells; 0.4 nM 5-FdUR): 0.4%; percent survival of the wild type (E. coli χ2913 cells; 150 nM 5-FdUR, separate experiments (b), (c), (e), (g)): < 0.1% and 0.1% and 0.5% and 0.95%; percent survival of the wild type (E. coli χ2913 cells; 200 nM 5-FdUR): 0%; percent survival of the wild type (E. coli χ2913 cells; 300 nM 5-FdUR): 0%

B4: D116A (protein)
chain: MPVAGSELPRRPLPPAAQERDAEPRPPHGELQYLGQIQHILRCGVRKDDRTGTGTLSVFGMQARYSLRDEFPLLTTKRVFWKGVLEELLWFIKGSTNAKELSSKGVKIWDANGSRAFLDSLGFSTREEGDLGPVYGFQWRHFGAEYRDMESDYSGQGVDQLQRVIDTIKTNPDDRRIIMCAWNPRDLPLMALPPCHALCQFYVVNSELSCQLYQRSGDMGLGVPFNIASYALLTYMIAHITGLKPGDFIHTLGDAHIYLNHIEPLKIQLQREPRPFPKLRILRKVEKIDDFKAEDFQIEGYNPHPTIKMEMAV
**Q.** With B4 as the molecule, how does the “resistance to 5-FdUR” value (E. coli χ2913 cells) read?
**A.** The value was “yield resistance”.

B5: D254E (protein)
chain: MPVAGSELPRRPLPPAAQERDAEPRPPHGELQYLGQIQHILRCGVRKDDRTGTGTLSVFGMQARYSLRDEFPLLTTKRVFWKGVLEELLWFIKGSTNAKELSSKGVKIWDANGSRDFLDSLGFSTREEGDLGPVYGFQWRHFGAEYRDMESDYSGQGVDQLQRVIDTIKTNPDDRRIIMCAWNPRDLPLMALPPCHALCQFYVVNSELSCQLYQRSGDMGLGVPFNIASYALLTYMIAHITGLKPGDFIHTLGEAHIYLNHIEPLKIQLQREPRPFPKLRILRKVEKIDDFKAEDFQIEGYNPHPTIKMEMAV
**Q.** Which results are given for B5?
**A.** survival rate of bacteria transfected with TS expression vector (bacterial strain χ2913): 80%; resistance to 5-FdUR (survival curves), in words (E. coli χ2913 cells): higher resistance than wild type TS

B6: D254N (protein)
chain: MPVAGSELPRRPLPPAAQERDAEPRPPHGELQYLGQIQHILRCGVRKDDRTGTGTLSVFGMQARYSLRDEFPLLTTKRVFWKGVLEELLWFIKGSTNAKELSSKGVKIWDANGSRDFLDSLGFSTREEGDLGPVYGFQWRHFGAEYRDMESDYSGQGVDQLQRVIDTIKTNPDDRRIIMCAWNPRDLPLMALPPCHALCQFYVVNSELSCQLYQRSGDMGLGVPFNIASYALLTYMIAHITGLKPGDFIHTLGNAHIYLNHIEPLKIQLQREPRPFPKLRILRKVEKIDDFKAEDFQIEGYNPHPTIKMEMAV
**Q.** Which “resistance to 5-FdUR” value (E. coli χ2913 cells) does the source give for B6 here?
**A.** Its value is “higher resistance than wild type TS”.

B7: T53S (protein)
chain: MPVAGSELPRRPLPPAAQERDAEPRPPHGELQYLGQIQHILRCGVRKDDRTGSGTLSVFGMQARYSLRDEFPLLTTKRVFWKGVLEELLWFIKGSTNAKELSSKGVKIWDANGSRDFLDSLGFSTREEGDLGPVYGFQWRHFGAEYRDMESDYSGQGVDQLQRVIDTIKTNPDDRRIIMCAWNPRDLPLMALPPCHALCQFYVVNSELSCQLYQRSGDMGLGVPFNIASYALLTYMIAHITGLKPGDFIHTLGDAHIYLNHIEPLKIQLQREPRPFPKLRILRKVEKIDDFKAEDFQIEGYNPHPTIKMEMAV
**Q.** With B7 as the molecule, how does the “resistance to 5-FdUR” value (E. coli χ2913 cells) read?
**A.** The value was “less resistant than the double mutant, but more resistant than wild type TS; also recorded: less resistant than Y258F”.

B8: Y258F: human TS single mutant Y258F made by site-directed mutagenesis (protein)
chain: MPVAGSELPRRPLPPAAQERDAEPRPPHGELQYLGQIQHILRCGVRKDDRTGTGTLSVFGMQARYSLRDEFPLLTTKRVFWKGVLEELLWFIKGSTNAKELSSKGVKIWDANGSRDFLDSLGFSTREEGDLGPVYGFQWRHFGAEYRDMESDYSGQGVDQLQRVIDTIKTNPDDRRIIMCAWNPRDLPLMALPPCHALCQFYVVNSELSCQLYQRSGDMGLGVPFNIASYALLTYMIAHITGLKPGDFIHTLGDAHIFLNHIEPLKIQLQREPRPFPKLRILRKVEKIDDFKAEDFQIEGYNPHPTIKMEMAV
**Q.** What does the source list for B8?
**A.** Ki for 5-FdUMP, increase over wild type TS [1]: 3.1 fold; resistance to 5-FdUR (survival curves), in words (E. coli χ2913 cells): less resistant than the double mutant, but more resistant than wild type TS

B9: T51S: human TS single mutant T51S (protein)
chain: MPVAGSELPRRPLPPAAQERDAEPRPPHGELQYLGQIQHILRCGVRKDDRSGTGTLSVFGMQARYSLRDEFPLLTTKRVFWKGVLEELLWFIKGSTNAKELSSKGVKIWDANGSRDFLDSLGFSTREEGDLGPVYGFQWRHFGAEYRDMESDYSGQGVDQLQRVIDTIKTNPDDRRIIMCAWNPRDLPLMALPPCHALCQFYVVNSELSCQLYQRSGDMGLGVPFNIASYALLTYMIAHITGLKPGDFIHTLGDAHIYLNHIEPLKIQLQREPRPFPKLRILRKVEKIDDFKAEDFQIEGYNPHPTIKMEMAV
**Q.** For B9, which “Ki for 5-FdUMP, increase over wild type TS” value [1] is on record?
**A.** Its value is 11 fold.

B10: M219V (protein)
chain: MPVAGSELPRRPLPPAAQERDAEPRPPHGELQYLGQIQHILRCGVRKDDRTGTGTLSVFGMQARYSLRDEFPLLTTKRVFWKGVLEELLWFIKGSTNAKELSSKGVKIWDANGSRDFLDSLGFSTREEGDLGPVYGFQWRHFGAEYRDMESDYSGQGVDQLQRVIDTIKTNPDDRRIIMCAWNPRDLPLMALPPCHALCQFYVVNSELSCQLYQRSGDVGLGVPFNIASYALLTYMIAHITGLKPGDFIHTLGDAHIYLNHIEPLKIQLQREPRPFPKLRILRKVEKIDDFKAEDFQIEGYNPHPTIKMEMAV
**Q.** Which “resistance to 5-FdUR” value (E. coli χ2913 cells) does the source give for B10 here?
**A.** Its value is “yield resistance”.
